Columns and labels:
[1] = system: MMPpep, (prA)GGPQGIWGQG(azK), as the DNA1-MMPpep-DNA2 triblock conjugate linking two DX tiles
[2] = system: MMPpep-scram, (prA)GQGIPQGWGG(azK), as a DNA-peptide-DNA conjugate linking two DX tiles

Sequence of human matrix metalloproteinase 8 (chain, as listed by the source): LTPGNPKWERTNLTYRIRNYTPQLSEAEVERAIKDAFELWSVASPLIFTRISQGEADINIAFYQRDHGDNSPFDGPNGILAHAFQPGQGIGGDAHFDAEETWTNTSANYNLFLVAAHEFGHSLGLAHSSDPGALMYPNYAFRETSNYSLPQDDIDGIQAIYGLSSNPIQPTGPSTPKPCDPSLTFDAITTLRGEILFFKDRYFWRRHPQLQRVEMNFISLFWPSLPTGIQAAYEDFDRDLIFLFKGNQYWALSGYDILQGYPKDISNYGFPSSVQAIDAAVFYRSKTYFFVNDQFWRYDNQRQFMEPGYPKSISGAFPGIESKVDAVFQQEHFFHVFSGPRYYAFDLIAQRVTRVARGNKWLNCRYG

human matrix metalloproteinase 8
cleavage of DX tile dimer to individual tiles, native PAGE [1]: Following addition of MMP8 (4 ng protein, incubation for 48 h at 37 °C in PBS) a single band is once again seen, corresponding to the individual tiles | cleavage of DX tile dimer to individual tiles, native PAGE [2]: did not show any cleavage to individual tiles

Source: US20230053360
